Test results as given in US20160272683A1 (Novo Nordisk, published 2016).
One block for each binder: values may come before it. Numbered stars: 1 amine (or outer) side, 2 acyl side, 3 side chain; on linkers, the order of the positions; unused ones are H or OH. * marks the point of attachment. C20 diacid = O=C(O)CCCCCCCCCCCCCCCCCCC(=O)*; C18 diacid = O=C(O)CCCCCCCCCCCCCCCCC(=O)*; γGlu = O=C(O)[C@H](CCC(=O)[*:2])N[*:1]

Columns and labels:
[1] = target: rat calcitonin receptor (rat) (UniProt P32214); experiment: SPA competition vs 125I-calcitonin, membranes with rat CTR (Assay VIII)
[2] = target: rat amylin receptor (rat calcitonin receptor with rat RAMP 3) (rat) (UniProt P32214); experiment: SPA competition vs 125I-rat amylin, membranes with rat CTR + rat RAMP3 (Assay VI)
[3] = target: T1, human amylin receptor (human calcitonin receptor + human RAMP3) (human) (UniProt P30988); experiment: whole-cell competition vs 125I-rat amylin (Assay Va)
T1 sequence (looked up) 1: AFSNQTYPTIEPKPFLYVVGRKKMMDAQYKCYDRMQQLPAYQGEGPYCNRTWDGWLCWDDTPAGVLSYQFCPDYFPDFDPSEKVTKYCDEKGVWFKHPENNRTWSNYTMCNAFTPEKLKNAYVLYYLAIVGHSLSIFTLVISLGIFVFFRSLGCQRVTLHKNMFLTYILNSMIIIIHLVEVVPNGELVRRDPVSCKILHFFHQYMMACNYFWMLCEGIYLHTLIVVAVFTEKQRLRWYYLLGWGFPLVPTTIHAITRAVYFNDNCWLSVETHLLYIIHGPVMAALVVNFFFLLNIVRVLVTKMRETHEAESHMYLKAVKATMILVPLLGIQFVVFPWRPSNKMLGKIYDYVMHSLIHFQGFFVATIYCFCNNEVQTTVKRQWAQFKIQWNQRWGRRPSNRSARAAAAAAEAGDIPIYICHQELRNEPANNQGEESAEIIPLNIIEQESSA
T1 sequence (looked up) 2: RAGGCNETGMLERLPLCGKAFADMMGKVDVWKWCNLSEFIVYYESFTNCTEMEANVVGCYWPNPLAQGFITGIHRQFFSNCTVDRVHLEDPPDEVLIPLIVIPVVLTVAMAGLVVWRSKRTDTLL

B2: [N-terminal(C20 diacid-gGlu), des1, 9S, 21S, 23Y, 30S, 31G, 33Y]mimylin (peptide)
peptide: {C20 diacid-γGlu}-ASELSTASLGRLSAELHELSTYPRTETGSGSY-NH2
SMILES: CC(C)C[C@H](NC(=O)[C@H](CO)NC(=O)[C@H](C)NC(=O)[C@@H](NC(=O)[C@H](CO)NC(=O)[C@H](CC(C)C)NC(=O)[C@H](CCC(=O)O)NC(=O)[C@H](CO)NC(=O)[C@H](C)NC(=O)CC[C@H](NC(=O)CCCCCCCCCCCCCCCCCCC(=O)O)C(=O)O)[C@@H](C)O)C(=O)NCC(=O)N[C@@H](CCCNC(=N)N)C(=O)N[C@@H](CC(C)C)C(=O)N[C@@H](CO)C(=O)N[C@@H](C)C(=O)N[C@@H](CCC(=O)O)C(=O)N[C@@H](CC(C)C)C(=O)N[C@@H](Cc1c[nH]cn1)C(=O)N[C@@H](CCC(=O)O)C(=O)N[C@@H](CC(C)C)C(=O)N[C@@H](CO)C(=O)N[C@H](C(=O)N[C@@H](Cc1ccc(O)cc1)C(=O)N1CCC[C@H]1C(=O)N[C@@H](CCCNC(=N)N)C(=O)N[C@H](C(=O)N[C@@H](CCC(=O)O)C(=O)N[C@H](C(=O)NCC(=O)N[C@@H](CO)C(=O)NCC(=O)N[C@@H](CO)C(=O)N[C@@H](Cc1ccc(O)cc1)C(N)=O)[C@@H](C)O)[C@@H](C)O)[C@@H](C)O
IC50 [1]: 0.062 nM
IC50 [2]: 0.046 nM
IC50 [3]: 3.17 nM

B4: [N-terminal(C20 diacid-gGlu), des1, 4G, 8L, 9V, 15Q, 21Q, 23Y, 30S, 31Q, 32T, 33Y]mimylin (peptide)
peptide: {C20 diacid-γGlu}-ASGLSTLVLGRLSQELHELQTYPRTETGSQTY-NH2
SMILES: CC(C)C[C@H](NC(=O)CNC(=O)[C@H](CO)NC(=O)[C@H](C)NC(=O)CC[C@H](NC(=O)CCCCCCCCCCCCCCCCCCC(=O)O)C(=O)O)C(=O)N[C@@H](CO)C(=O)N[C@H](C(=O)N[C@@H](CC(C)C)C(=O)N[C@H](C(=O)N[C@@H](CC(C)C)C(=O)NCC(=O)N[C@@H](CCCNC(=N)N)C(=O)N[C@@H](CC(C)C)C(=O)N[C@@H](CO)C(=O)N[C@@H](CCC(N)=O)C(=O)N[C@@H](CCC(=O)O)C(=O)N[C@@H](CC(C)C)C(=O)N[C@@H](Cc1c[nH]cn1)C(=O)N[C@@H](CCC(=O)O)C(=O)N[C@@H](CC(C)C)C(=O)N[C@@H](CCC(N)=O)C(=O)N[C@H](C(=O)N[C@@H](Cc1ccc(O)cc1)C(=O)N1CCC[C@H]1C(=O)N[C@@H](CCCNC(=N)N)C(=O)N[C@H](C(=O)N[C@@H](CCC(=O)O)C(=O)N[C@H](C(=O)NCC(=O)N[C@@H](CO)C(=O)N[C@@H](CCC(N)=O)C(=O)N[C@H](C(=O)N[C@@H](Cc1ccc(O)cc1)C(N)=O)[C@@H](C)O)[C@@H](C)O)[C@@H](C)O)[C@@H](C)O)C(C)C)[C@@H](C)O
IC50 [1]: 0.031 nM
IC50 [2]: 0.091 nM
IC50 [3]: 1.48 nM

B6: [N-terminal(C18 diacid-gGlu), des1, 6T, 9V, 14T, 21E, 30T, 31G, 32T]mimylin (peptide)
peptide: {C18 diacid-γGlu}-ASELTTAVLGRLTAELHELETLPRTETGTGTP-NH2
SMILES: CC(C)C[C@H](NC(=O)[C@H](CCC(=O)O)NC(=O)[C@H](C)NC(=O)[C@@H](NC(=O)[C@H](CC(C)C)NC(=O)[C@H](CCCNC(=N)N)NC(=O)CNC(=O)[C@H](CC(C)C)NC(=O)[C@@H](NC(=O)[C@H](C)NC(=O)[C@@H](NC(=O)[C@@H](NC(=O)[C@H](CC(C)C)NC(=O)[C@H](CCC(=O)O)NC(=O)[C@H](CO)NC(=O)[C@H](C)NC(=O)CC[C@H](NC(=O)CCCCCCCCCCCCCCCCC(=O)O)C(=O)O)[C@@H](C)O)[C@@H](C)O)C(C)C)[C@@H](C)O)C(=O)N[C@@H](Cc1c[nH]cn1)C(=O)N[C@@H](CCC(=O)O)C(=O)N[C@@H](CC(C)C)C(=O)N[C@@H](CCC(=O)O)C(=O)N[C@H](C(=O)N[C@@H](CC(C)C)C(=O)N1CCC[C@H]1C(=O)N[C@@H](CCCNC(=N)N)C(=O)N[C@H](C(=O)N[C@@H](CCC(=O)O)C(=O)N[C@H](C(=O)NCC(=O)N[C@H](C(=O)NCC(=O)N[C@H](C(=O)N1CCC[C@H]1C(N)=O)[C@@H](C)O)[C@@H](C)O)[C@@H](C)O)[C@@H](C)O)[C@@H](C)O
IC50 [1]: 0.072 nM
IC50 [2]: 0.162 nM
IC50 [3]: 22.9 nM

B7: [N-terminal(C20 diacid-gGlu), des1, 4Q, 9V, 15Q, 16R, 19R, 21Q, 23Y, 27Q, 30S, 31Q, 32T, 33Y]mimylin (peptide)
peptide: {C20 diacid-γGlu}-ASQLSTAVLGRLSQRLHRLQTYPRTQTGSQTY-NH2
SMILES: CC(C)C[C@H](NC(=O)[C@H](CCCNC(=N)N)NC(=O)CNC(=O)[C@H](CC(C)C)NC(=O)[C@@H](NC(=O)[C@H](C)NC(=O)[C@@H](NC(=O)[C@H](CO)NC(=O)[C@H](CC(C)C)NC(=O)[C@H](CCC(N)=O)NC(=O)[C@H](CO)NC(=O)[C@H](C)NC(=O)CC[C@H](NC(=O)CCCCCCCCCCCCCCCCCCC(=O)O)C(=O)O)[C@@H](C)O)C(C)C)C(=O)N[C@@H](CO)C(=O)N[C@@H](CCC(N)=O)C(=O)N[C@@H](CCCNC(=N)N)C(=O)N[C@@H](CC(C)C)C(=O)N[C@@H](Cc1c[nH]cn1)C(=O)N[C@@H](CCCNC(=N)N)C(=O)N[C@@H](CC(C)C)C(=O)N[C@@H](CCC(N)=O)C(=O)N[C@H](C(=O)N[C@@H](Cc1ccc(O)cc1)C(=O)N1CCC[C@H]1C(=O)N[C@@H](CCCNC(=N)N)C(=O)N[C@H](C(=O)N[C@@H](CCC(N)=O)C(=O)N[C@H](C(=O)NCC(=O)N[C@@H](CO)C(=O)N[C@@H](CCC(N)=O)C(=O)N[C@H](C(=O)N[C@@H](Cc1ccc(O)cc1)C(N)=O)[C@@H](C)O)[C@@H](C)O)[C@@H](C)O)[C@@H](C)O
IC50 [1]: 0.069 nM
IC50 [2]: 1.16 nM
IC50 [3]: 3.7 nM

The remaining binders from weak to strong by IC50 [1], led by results:

IC50 [1]: 0.031 nM
IC50 [2]: 0.026 nM
IC50 [3]: 0.142 nM
B1: [N-terminal(C20 diacid-gGlu), des1, 4G, 15Q, 21Q, 23Y, 25H, 30S, 31G, 32T, 33Y]mimylin (peptide)
peptide: {C20 diacid-γGlu}-ASGLSTAALGRLSQELHELQTYPHTETGSGTY-NH2
SMILES: CC(C)C[C@H](NC(=O)CNC(=O)[C@H](CO)NC(=O)[C@H](C)NC(=O)CC[C@H](NC(=O)CCCCCCCCCCCCCCCCCCC(=O)O)C(=O)O)C(=O)N[C@@H](CO)C(=O)N[C@H](C(=O)N[C@@H](C)C(=O)N[C@@H](C)C(=O)N[C@@H](CC(C)C)C(=O)NCC(=O)N[C@@H](CCCNC(=N)N)C(=O)N[C@@H](CC(C)C)C(=O)N[C@@H](CO)C(=O)N[C@@H](CCC(N)=O)C(=O)N[C@@H](CCC(=O)O)C(=O)N[C@@H](CC(C)C)C(=O)N[C@@H](Cc1c[nH]cn1)C(=O)N[C@@H](CCC(=O)O)C(=O)N[C@@H](CC(C)C)C(=O)N[C@@H](CCC(N)=O)C(=O)N[C@H](C(=O)N[C@@H](Cc1ccc(O)cc1)C(=O)N1CCC[C@H]1C(=O)N[C@@H](Cc1c[nH]cn1)C(=O)N[C@H](C(=O)N[C@@H](CCC(=O)O)C(=O)N[C@H](C(=O)NCC(=O)N[C@@H](CO)C(=O)NCC(=O)N[C@H](C(=O)N[C@@H](Cc1ccc(O)cc1)C(N)=O)[C@@H](C)O)[C@@H](C)O)[C@@H](C)O)[C@@H](C)O)[C@@H](C)O

IC50 [1]: 0.028 nM
IC50 [2]: 0.098 nM
IC50 [3]: 0.116 nM
B3: [N-terminal(C20 diacid-gGlu), des1, 4G, 9T, 15Q, 21Q, 23Y, 25P, 30S, 31G, 32T, 33Y]mimylin (peptide)
peptide: {C20 diacid-γGlu}-ASGLSTATLGRLSQELHELQTYPPTETGSGTY-NH2
SMILES: CC(C)C[C@H](NC(=O)CNC(=O)[C@H](CO)NC(=O)[C@H](C)NC(=O)CC[C@H](NC(=O)CCCCCCCCCCCCCCCCCCC(=O)O)C(=O)O)C(=O)N[C@@H](CO)C(=O)N[C@H](C(=O)N[C@@H](C)C(=O)N[C@H](C(=O)N[C@@H](CC(C)C)C(=O)NCC(=O)N[C@@H](CCCNC(=N)N)C(=O)N[C@@H](CC(C)C)C(=O)N[C@@H](CO)C(=O)N[C@@H](CCC(N)=O)C(=O)N[C@@H](CCC(=O)O)C(=O)N[C@@H](CC(C)C)C(=O)N[C@@H](Cc1c[nH]cn1)C(=O)N[C@@H](CCC(=O)O)C(=O)N[C@@H](CC(C)C)C(=O)N[C@@H](CCC(N)=O)C(=O)N[C@H](C(=O)N[C@@H](Cc1ccc(O)cc1)C(=O)N1CCC[C@H]1C(=O)N1CCC[C@H]1C(=O)N[C@H](C(=O)N[C@@H](CCC(=O)O)C(=O)N[C@H](C(=O)NCC(=O)N[C@@H](CO)C(=O)NCC(=O)N[C@H](C(=O)N[C@@H](Cc1ccc(O)cc1)C(N)=O)[C@@H](C)O)[C@@H](C)O)[C@@H](C)O)[C@@H](C)O)[C@@H](C)O)[C@@H](C)O

IC50 [1]: 0.021 nM
IC50 [2]: 0.146 nM
IC50 [3]: 0.278 nM
B5: [N-terminal(C20 diacid-gGlu), des1, 9V, 15Q, 21Q, 23Y, 30S, 31G, 32T, 33Y]mimylin (peptide)
peptide: {C20 diacid-γGlu}-ASELSTAVLGRLSQELHELQTYPRTETGSGTY-NH2
SMILES: CC(C)C[C@H](NC(=O)[C@H](CCCNC(=N)N)NC(=O)CNC(=O)[C@H](CC(C)C)NC(=O)[C@@H](NC(=O)[C@H](C)NC(=O)[C@@H](NC(=O)[C@H](CO)NC(=O)[C@H](CC(C)C)NC(=O)[C@H](CCC(=O)O)NC(=O)[C@H](CO)NC(=O)[C@H](C)NC(=O)CC[C@H](NC(=O)CCCCCCCCCCCCCCCCCCC(=O)O)C(=O)O)[C@@H](C)O)C(C)C)C(=O)N[C@@H](CO)C(=O)N[C@@H](CCC(N)=O)C(=O)N[C@@H](CCC(=O)O)C(=O)N[C@@H](CC(C)C)C(=O)N[C@@H](Cc1c[nH]cn1)C(=O)N[C@@H](CCC(=O)O)C(=O)N[C@@H](CC(C)C)C(=O)N[C@@H](CCC(N)=O)C(=O)N[C@H](C(=O)N[C@@H](Cc1ccc(O)cc1)C(=O)N1CCC[C@H]1C(=O)N[C@@H](CCCNC(=N)N)C(=O)N[C@H](C(=O)N[C@@H](CCC(=O)O)C(=O)N[C@H](C(=O)NCC(=O)N[C@@H](CO)C(=O)NCC(=O)N[C@H](C(=O)N[C@@H](Cc1ccc(O)cc1)C(N)=O)[C@@H](C)O)[C@@H](C)O)[C@@H](C)O)[C@@H](C)O
